Assay: Solubility in water
Format: physicochemical

With `CC(=O)N[C@H]1[C@H](O[C@H]2[C@H](O[C@H](C)C(=O)N[C@@H](C)C(=O)N[C@H](CCC(=O)N[C@@H](C)C(=O)N[C@H](C)C(=O)O)C(=O)O)[C@@H](NC(C)=O)C(O)O[C@@H]2CO)O[C@H](CO)[C@@H](O)[C@@H]1O` (stereo partly drawn) [GMTP, N-acetylglucosaminyl-β(1-4)-N-acetylmuramoyl-l-alanyl-γ-d-glutamyl-l-alanyl-d-alanine] the solubility in water was “water soluble”.

Reference: paper PMC8140593, “Chemical synthesis of peptidoglycan mimetic–disaccharide-tetrapeptide conjugate and its hydrolysis by bacteriophage T5, RB43 and RB49 L-alanyl-D-glutamate peptidases” (PeerJ, 2021)
